From PMC7102993
Blank lines part the entries; values can stand above or below the substance they belong to.

Legend:
[1] = biological target: NrS-1 polymerase C-terminal region (residues 301-718) (phage NrS-1); experiment: crystal structure; A-form NrS-1 CTR crystals, space group P212121, grown at 16°C in 2.8 M sodium acetate trihydrate pH 7.0; six monomers per asymmetric unit
[2] = biological target: NrS-1 polymerase C-terminal region (residues 301-718) (phage NrS-1); experiment: crystal structure; B-form NrS-1 CTR crystals, space group P213, grown at 16°C in 1.6 M NaH2PO4/0.4 M K2HPO4, 0.1 M phosphate-citrate pH 4.2; two monomers per asymmetric unit, hexamer by symmetry operation; 2.4 Å
[3] = biological target: full-length NrS-1 polymerase (wild type) (phage NrS-1); experiment: negative-stain electron microscopy; protein from the first peak of the size-exclusion column, diluted to 40 μg/ml in low-salt buffer, stained with 0.75% uranyl formate; 2D class averages and 3D map (RELION)
[4] = biological target: full-length NrS-1 polymerase (wild type) (phage NrS-1); experiment: SEC; Superose 6 Increase 10/300 GL; 20 mM Tris pH 8.0, 2 mM DTT with 500 mM NaCl (high salt) or 200 mM NaCl (low salt); monomer at 15.83 ml, hexamer at 13.5 ml
[5] = biological target: full-length NrS-1 polymerase K525A mutant (phage NrS-1); experiment: as above

stoichiometry N [1]: 6
stoichiometry N [2]: 6
Substance: NrS-1 polymerase C-terminal region (residues 301-718) (domain or fragment)

stoichiometry N [3]: 6
stoichiometry N [4]: 6
Substance: full-length NrS-1 polymerase (wild type) (enzyme)

stoichiometry N [5]: 6
Substance: full-length NrS-1 polymerase K525A mutant (enzyme)
